Results on one substance are retold here after publication PMC7873564.

This test concerns the target mouse IgMκ paraprotein TEPC183. Put plainly: flow cytometry on cells. The note with it: mean ± 1 SD from three independent experiments; parent: est. 3.7; read off a plot.

Take “human IgM Fc receptor (FcµR), wild type (from UniProt O60667-1) N66del”: the response (MFI index (x10^2)) was 2.1.
